Laboratory results taken from article PMC5062967 (Nucleic Acids Research, 2016).

Target: T1, human 5MP2 (ITC sample) (human, UniProt Q7L1Q6 1-419)
T1 sequence: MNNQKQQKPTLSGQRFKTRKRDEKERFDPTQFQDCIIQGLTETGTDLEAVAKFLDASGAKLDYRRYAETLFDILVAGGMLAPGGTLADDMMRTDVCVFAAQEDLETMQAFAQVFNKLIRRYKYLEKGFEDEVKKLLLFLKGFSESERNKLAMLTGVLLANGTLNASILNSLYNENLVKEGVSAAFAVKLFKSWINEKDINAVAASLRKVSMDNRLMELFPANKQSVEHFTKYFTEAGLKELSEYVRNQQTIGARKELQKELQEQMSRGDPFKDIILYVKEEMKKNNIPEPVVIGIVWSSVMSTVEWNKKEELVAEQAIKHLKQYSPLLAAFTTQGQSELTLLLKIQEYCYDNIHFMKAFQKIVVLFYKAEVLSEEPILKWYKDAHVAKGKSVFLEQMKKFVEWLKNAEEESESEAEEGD
Test: ITC

B1: Human eIF2β_(53-136) carrying two K-boxes (domain or fragment)
chain: DLEADEEDTRKKDASDDLDDLNFFNQKKKKKKTKKIFDIDEAEEGVKDLKIESDVQEPTEPEDDLDIMLGNKKKKKKNVKFPDE
- Kd: 1500 nM
